In patent US20200024322A1 (Eli Lilly, published 2020):
Residue numbers refer to the chain shown, from its start.

T1: human GIP receptor (human, UniProt P48546 22-466)
T1 construct: whole, on cells; also called hGIPR; hGIP-R
T1 sequence (looked up): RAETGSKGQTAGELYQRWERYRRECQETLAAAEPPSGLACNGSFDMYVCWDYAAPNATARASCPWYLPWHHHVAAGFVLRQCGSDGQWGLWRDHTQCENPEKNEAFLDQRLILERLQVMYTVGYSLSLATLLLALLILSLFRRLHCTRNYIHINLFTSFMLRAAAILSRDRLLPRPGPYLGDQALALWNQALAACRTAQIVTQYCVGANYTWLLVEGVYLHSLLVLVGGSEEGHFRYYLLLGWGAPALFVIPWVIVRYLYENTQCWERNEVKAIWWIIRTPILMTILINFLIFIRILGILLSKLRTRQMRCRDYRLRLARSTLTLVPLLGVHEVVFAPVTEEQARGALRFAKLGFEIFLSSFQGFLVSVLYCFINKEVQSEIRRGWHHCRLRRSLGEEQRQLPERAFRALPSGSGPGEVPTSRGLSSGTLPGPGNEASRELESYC

B1: Example 214 (peptide)
peptide: YXEGTXTSDYSIXLDEKAQXEFIXYLIEGGPSSGAPPPS
modifications: Aib2; αMeF(2F)6; αMeL13; K17((2-[2-(2-Amino-ethoxy)-ethoxy]-acetyl)2-CO-(CH2)16-CO2H); Aib20; D-Glu24; C-terminal NH2
B2: Example 218 (peptide)
peptide: B1 peptide with E16X
modifications: Aib2; αMeF(2F)6; αMeL13; Dap16; K17((2-[2-(2-Amino-ethoxy)-ethoxy]-acetyl)2-(γ-Glu)-CO-(CH2)18-CO2H); Aib20; D-Glu24; C-terminal NH2
B3: Example 221 (peptide)
peptide: B1 peptide
modifications: Aib2; αMeF(2F)6; αMeL13; K17((2-[2-(2-Amino-ethoxy)-ethoxy]-acetyl)2-(γ-Glu)-CO-(CH2)16-CO2H); Aib20; D-Glu24; C-terminal NH2
B4: Example 225 (peptide)
peptide: B1 peptide
modifications: Aib2; αMeF6; Aib13; K17((2-[2-(2-Amino-ethoxy)-ethoxy]-acetyl)2-(γ-Glu)-CO-(CH2)18-CO2H); Aib20; D-Glu24; C-terminal NH2
B5: Example 215 (peptide)
peptide: B1 peptide
modifications: Aib2; αMeF(2F)6; αMeL13; K17((2-[2-(2-Amino-ethoxy)-ethoxy]-acetyl)2-CO-(CH2)18-CO2H); Aib20; D-Glu24; C-terminal NH2
B6: Example 238 (peptide)
peptide: B1 peptide with Y10L, E16X, Y25X
modifications: Aib2; αMeF(2F)6; αMeL13; Orn16; K17((2-[2-(2-Amino-ethoxy)-ethoxy]-acetyl)2-(γ-Glu)-CO-(CH2)16-CO2H); Aib20; D-Glu24; αMeY25; C-terminal NH2
B7: Example 226 (peptide)
peptide: B1 peptide with X13L
modifications: Aib2; αMeF(2F)6; K17((2-[2-(2-Amino-ethoxy)-ethoxy]-acetyl)2-(γ-Glu)-CO-(CH2)18-CO2H); Aib20; D-Glu24; C-terminal NH2
B8: Example 223 (peptide)
peptide: B1 peptide with X24E, Y25X
modifications: Aib2; αMeF(2F)6; αMeL13; K17((2-[2-(2-Amino-ethoxy)-ethoxy]-acetyl)2-(γ-Glu)-CO-(CH2)18-CO2H); Aib20; αMeY25; C-terminal NH2
B9: Example 227 (peptide)
peptide: B1 peptide
modifications: Aib2; αMeF6; αMeL13; K17((2-[2-(2-Amino-ethoxy)-ethoxy]-acetyl)2-(γ-Glu)-CO-(CH2)18-CO2H); Aib20; D-Glu24; C-terminal NH2
B10: Example 216 (peptide)
peptide: B1 peptide
modifications: Aib2; αMeF(2F)6; αMeL13; K17((2-[2-(2-Amino-ethoxy)-ethoxy]-acetyl)2-(εK)-CO-(CH2)18-CO2H); Aib20; D-Glu24; C-terminal NH2
B11: Example 224 (peptide)
peptide: B1 peptide
modifications: Aib2; αMeF(2F)6; Aib13; K17((2-[2-(2-Amino-ethoxy)-ethoxy]-acetyl)2-(γ-Glu)-CO-(CH2)18-CO2H); Aib20; D-Glu24; C-terminal NH2
B12: Example 217 (peptide)
peptide: B1 peptide with E16X
modifications: Aib2; αMeF(2F)6; αMeL13; Dab16; K17((2-[2-(2-Amino-ethoxy)-ethoxy]-acetyl)2-(γ-Glu)-CO-(CH2)18-CO2H); Aib20; D-Glu24; C-terminal NH2
B13: Example 222 (peptide)
peptide: B1 peptide with Y25X
modifications: Aib2; αMeF(2F)6; αMeL13; K17((2-[2-(2-Amino-ethoxy)-ethoxy]-acetyl)2-(γ-Glu)-CO-(CH2)18-CO2H); Aib20; D-Glu24; αMeY25; C-terminal NH2
B14: Example 236 (peptide)
peptide: B1 peptide with E16X, Y25X
modifications: Aib2; αMeF(2F)6; αMeL13; Orn16; K17((2-[2-(2-Amino-ethoxy)-ethoxy]-acetyl)2-(γ-Glu)-CO-(CH2)16-CO2H); Aib20; D-Glu24; αMeY25; C-terminal NH2
B15: Example 241 (peptide)
peptide: B1 peptide with Y10V, E16X, E21T, Y25X
modifications: Aib2; αMeF(2F)6; αMeL13; Orn16; K17((2-[2-(2-Amino-ethoxy)-ethoxy]-acetyl)2-(γ-Glu)-CO-(CH2)16-CO2H); Aib20; D-Glu24; αMeY25; C-terminal NH2
B16: Example 242 (peptide)
peptide: B1 peptide with Y10V, E16X, E21A, Y25X
modifications: Aib2; αMeF(2F)6; αMeL13; Orn16; K17((2-[2-(2-Amino-ethoxy)-ethoxy]-acetyl)2-(γ-Glu)-CO-(CH2)16-CO2H); Aib20; D-Glu24; αMeY25; C-terminal NH2
B17: Example 220 (peptide)
peptide: YXEGTXTSDYSIXLDEKAQXEFIXYLIEGG
modifications: Aib2; αMeF(2F)6; αMeL13; K17((2-[2-(2-Amino-ethoxy)-ethoxy]-acetyl)2-(γ-Glu)-CO-(CH2)16-CO2H); Aib20; D-Glu24; C-terminal NH2
B18: Example 219 (peptide)
peptide: YXEGTXTSDYSIXLDEKAQXEFIXYLIEGGPSSG
modifications: Aib2; αMeF(2F)6; αMeL13; K17((2-[2-(2-Amino-ethoxy)-ethoxy]-acetyl)2-(γ-Glu)-CO-(CH2)16-CO2H); Aib20; D-Glu24; C-terminal NH2
B19: Example 228 (peptide)
peptide: B18 peptide with E16K
modifications: Aib2; αMeF6; αMeL13; K17((2-[2-(2-Amino-ethoxy)-ethoxy]-acetyl)2-(γ-Glu)-CO-(CH2)18-CO2H); Aib20; D-Glu24; C-terminal NH2

molecular target: T2, human glucagon receptor (human, UniProt P47871 26-477); assay: [125I]-Gcg competition SPA, hGcgR membranes
T2 construct: whole, on cells; also called hGcgR; GcgR
T2 sequence (P47871 26-477): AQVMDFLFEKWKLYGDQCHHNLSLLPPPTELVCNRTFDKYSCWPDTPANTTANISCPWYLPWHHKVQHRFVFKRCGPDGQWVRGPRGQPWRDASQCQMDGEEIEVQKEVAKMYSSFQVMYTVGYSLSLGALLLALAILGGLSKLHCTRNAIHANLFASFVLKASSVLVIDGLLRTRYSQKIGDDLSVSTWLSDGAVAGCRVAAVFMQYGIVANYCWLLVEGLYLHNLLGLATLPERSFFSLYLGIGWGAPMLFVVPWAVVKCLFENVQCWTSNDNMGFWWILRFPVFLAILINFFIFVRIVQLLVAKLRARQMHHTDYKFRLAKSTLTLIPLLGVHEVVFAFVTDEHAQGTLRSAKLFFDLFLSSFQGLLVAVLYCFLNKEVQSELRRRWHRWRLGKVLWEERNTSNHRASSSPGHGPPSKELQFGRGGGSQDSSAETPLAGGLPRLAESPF

Row | Binder | Ki [nM]
1 | B1 | 126
2 | B2 | 270
3 | B3 | 154
4 | B4 | 714
5 | B5 | 75.2
6 | B6 | 230
7 | B7 | 200
8 | B8 | 46.5
9 | B9 | 113
10 | B10 | 45.2
11 | B11 | 627
12 | B12 | 516
13 | B13 | 71.3
14 | B14 | 200
15 | B15 | 167
16 | B16 | 95.9
17 | B17 | 377
18 | B18 | 373
19 | B19 | 182

molecular target: T1, human GIP receptor; assay: [125I]-GIP competition SPA, hGIPR membranes

Row | Binder | Ki [nM]
20 | B1 | 0.0304
21 | B2 | 0.0593
22 | B3 | 0.0414
23 | B4 | 0.0622
24 | B5 | 0.0666
25 | B6 | 0.0403
26 | B7 | 0.0254
27 | B8 | 0.0921
28 | B9 | 0.0146
29 | B10 | 0.0559
30 | B11 | 0.0482
31 | B12 | 0.0376
32 | B13 | 0.0495
33 | B14 | 0.0425
34 | B15 | 0.042
35 | B16 | 0.0604
36 | B17 | 0.0919
37 | B18 | 0.0689
38 | B19 | 0.028

molecular target: T3, human GLP-1 receptor (human, UniProt P43220 24-463); assay: [125I]-GLP-1 competition SPA, hGLP-1R membranes
T3 construct: whole, on cells; also called hGLP-1R; hGLP1R
Outline: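 Competition binding in 25 mM HEPES pH 7.4, 2.5 mM CaCl₂, 1 mM MgCl₂, 0.1% bacitracin, 0.003% TWEEN-20, EDTA-free protease inhibitors. IC₅₀ from four-parameter nonlinear fit; Kᵢ given as geometric mean ± SEM, n = independent replicates on different days.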

Row | Binder | Ki [nM]
39 | B1 | 1.99
40 | B2 | 2.54
41 | B3 | 1.77
42 | B4 | 8.79
43 | B5 | 6.85
44 | B6 | 0.548
45 | B7 | 4.1
46 | B8 | 5.62
47 | B9 | 2.01
48 | B10 | 2.34
49 | B11 | 6.86
50 | B12 | 2.02
51 | B13 | 3.59
52 | B14 | 1.05
53 | B15 | 0.799
54 | B16 | 0.853
55 | B17 | 2.71
56 | B18 | 2.01
57 | B19 | 2.43
